According to the NTF2 design screens of Basanta et al. (2020):

test: protease stability score; higher = more stable; yeast display proteolysis, trypsin and chymotrypsin;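 also: log10 excess protease needed over predicted unfolded state with 0 meaning unfolded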

Compared with “DEQDQLKLAERVLKAVNDNNPQKFEELADENATVKVGDKTWHGRSHAQEMIKRFKERVDSLEIKHIDNRGNRARVHLVLEHNGRTTEMSIVVTVENGRAKAVVVHTK”, “DEKKLEEVAKKVMDAMRKGDSETLVKLGKPDVTFKVADIEFKGQDQLRKYYKLDQDVGVELHLKEEKKEGNKFTMVYDARFGGTQDTVEVEVEVKDEKVDKARAKFTEEYAKHIQKG” is higher in protease stability score: -0.133 for the first, 0.586 for the second.

Compared with “DEELVEQLKKMYENEKNGDPDKVHEQFDKDARIDIGEKQVRGRDQASREAERERKQINVEIKHVDIKAHNGRATIDMVIVFNINGQPHRRRVTVYAVLHNGKIKSMSRHMDPSEQDQLTQ”, “DEEVERLFKRFMSAVDEGNPDELKKQIDPNAKQHIGDKTYHGRETIASRIVKRRQKMRVTWKSISITDHNGTIKVTAHAVFNHNGRPKEVQLDIEVRAHGDQMKNFRVQVRG” is lower in protease stability score: 0.343 for the first, 0.328 for the second.

First: DEDALRKFKEFLEIKREGDERRLLELFDENVKIVVGDTELEGMTEAARDITRKRKEMRVEQRYDRFHVQGEHIRARARFTVKFNGRPHTNENTFRVVLRNGHYKSYELKIDPDELRKLDS
Second: DDKDADHVQRALRNLERGDPEKADTMFDPNAHVRIGDKEIHGREQLNHWVERVHTEMRQRWDFKDVNEHENHVQIDVSITTEKNGQPRSKHVKLNARVNNGTVTSVEQQDDG
The protease stability score of the first is higher: -0.083 for the first, -0.164 for the second.

Going from “DEEELKHVAELILKGDEKELSKMMDEDVRVHIGNKEYHGREQAEEAVKTLVDRADHFQVHDMRTSEGQIHVQLVVNINGENVNMYFVAEVHNGRIKEISARARDPREEEKFNKLLG” to “DEEKNQDHAKELAKAIVSNNEEDIERLMDPNATMLVGDKQVHGMEEARKLIRDLKKRADHIRVTDVTVSGNKIRVSFVMNVNGQNLQFVVDAQVHNGKITSMRIQARNDDIKRRLEQ”, the protease stability score falls from 1.68 to 1.28.

Compared with “DETDQVETLLKRFKEAVDHGDKHQARHLFRDDVRIKYGDKEIHGRDNLAHWIVDRARRADHVDFTIRQFDVRNGRVSVDVEVRYDVNGKHDHKRYTLRADLRNGRATAVTIEVR”, “DEEKQAKTALKRYKDAIKDGDEELAKRLFDKHARIEIGDKEVHGREEIARRIREMVERADHIDIKLQSMRVRGDHIRLELTMTVNINGKKEKSRFQFVMQRRGDEVYVTSMHQT” is lower in protease stability score: 0.344 for the first, -0.003 for the second.

First: DEEEIRMILDVIRARESGDEDRLHELLDKDVEFQVGEKTYHGREEIVRQVLQERREMQYSVNVKTVRDHNGVADIKAEFHFLYNGRPMNIDVEIHAHAHNGSVVNFRVRVDPKQMDDFKT
Second: DEKTAASQFFRDLRHALRQGDETRIMELADENVEFQIGDKRWHGRESAMELARHVHNRADTVELRIEDLKIDNGQMNADVLITFNHNGRNETQRVNVRARIHNGHVVLVEVHQK
The protease stability score of the first is lower: 1.26 for the first, 1.62 for the second.

Going from “DEHVLRQVEEWLHNVQTGDEDRLIELVDPNARVEIGDKVIHGMHRMARDLRRKRENMDINIRDYRVQVRGDKARVDIEEQVHHNGRPNSRRFEIQVDADNGRVKQIKWQSES” to “DDKRKADEFAKELVKAVQTGDSDNIRKLLDPNARINVGEKHYQGKDSMAKIMVRIAEDVDHISARVISVRDHNGSAVIHIEVQNNHNGRNSRTRVILHLTDHNGRIKLRERREG”, the protease stability score rises from 0.125 to 0.749.

Going from “DREEHASQLFRDMQEVYHNNDPSKFKHLVDENVTRDVGDKTVHGQDEMAREMEKEARRVDKVRFDVRDVKSNNGRIKVRFVVTHNENGRERSSDVTVRFQVSNGRLVIESQTET” to “DDKDRRRVAEEVVRAFVQNDPDRLVELADEDARVHYGDRELHGREKARHMLRKFKEQVDTATYQDFNVHGDKVDIKLTAHFNGRTHTQTVIVVIHNGRIKFIEIRSS”, the protease stability score rises from -0.206 to 1.22.

Going from “DDTAIRIFEELQKAVENGDEREVQENLDEDAKIEYGNRTLHGREKAAKDYKRMHDQMEFTYDMKHFTVQGDKARLKVEYKATVNGKPYSDSVDVEVKIKNGKIKYIRFQFDEHKQRERDS” to “DEDKHAHELAKKLQKVWEEGAEEKQQELVDEDDRKNIGEHTYNGEEQLRRDLDKLRKDADHVDMKLKQIRFQGDKARIDMVVSQTVNGKRNTDRFTVEARLNNGRLRIKQVTKN”, the protease stability score falls from 0.894 to 0.813.

Going from “DEEEAKEFADVFKNGDQDRYADLFDPNARVNIGNKEYHGRERVRTAVRTFFQRIDHIQVNHVRIEGNQLRIDAKMEINGQRIQVVFKVRIHNGHIKQFVVDFRDEQTMREFHKQLE” to “EEELKKVWTEMQDALENGNEEKIEENFDPNAHFQIGDTHIHGMHEWAHQQFREMKDIRVQVEIESVTFSGDKVNVEYSFTLEIDGRPQSNTATMSARVHNGHFKSVSIRIDPKELKDRQK”, the protease stability score falls from 1.27 to 0.601.
